System: human NPC
Experiment: Plating assay: NPC colony formation / quiescence
Assay type: cell-based
Conditions: fraction less than 30,000 Da after size-exclusion column
Protocol: Cells and Materials: Normal human NPC were obtained from Clonetics Corp (San Diego, Calif.), and grown in neural progenitor maintenance medium (Clonetics) with human recombinant basic fibroblast growth factor, epidermal growth factor, neural survival factors and antibiotics. These cells were derived as described previously (Svendsen (1998) J. Neurosci. Meth. 85:141-152).
Plating Assay: On day 0, HIV coat proteins at a concentration of 800 pM, or CSF at a concentration of 2% was added to cultures of NPC. Each protein or CSF sample was tested in triplicate. Cultures were incubated for seven days, and then cells were plated onto 24 well polyethylene-imine coated plates. The number of cell colonies having more than 20 cells with typical neuronal morphology was counted for each well after 7 days in culture. Determinations of colony inhibition for all proteins and CSF samples were done on each of three different lots of NPC. […]
The ability of HIV coat proteins to induce quiescence in human NPC was tested using NPC in the form of neurospheres. […] The number of colonies containing more than 20 cells with typical neuronal morphology was counted after 7 days in culture. […] None of the coat proteins induced cell death in NPC, as determined by trypan blue staining (>95% viability in all coat-protein treated cultures). […]

B1: RANTES: inflammatory chemokine (protein, UniProt P13501 24-91, looked up)
C-C motif chemokine 5: SPYSSDTTPCCFAYIARPLPRAHIKEYFYTSGKCSNPAVVFVTRKNRQVCANPEKKWVREYINSLEMS
- effect on NPC in the plating assay: inhibit NPC

From US20060074049A1, “Use of heparinoids for treatment and prevention of dementia” (priority 2004, published 2006)
